Our source for the Kd values is PMC4843787 (Biochimica et biophysica acta, 2015).

As a reminder, the Kd is the concentration at which binding is half-saturated.

The target in this test is T1, MauG, bis-Fe(IV) redox state (UniProt Q51658 21-387).
T1 sequence (looked up): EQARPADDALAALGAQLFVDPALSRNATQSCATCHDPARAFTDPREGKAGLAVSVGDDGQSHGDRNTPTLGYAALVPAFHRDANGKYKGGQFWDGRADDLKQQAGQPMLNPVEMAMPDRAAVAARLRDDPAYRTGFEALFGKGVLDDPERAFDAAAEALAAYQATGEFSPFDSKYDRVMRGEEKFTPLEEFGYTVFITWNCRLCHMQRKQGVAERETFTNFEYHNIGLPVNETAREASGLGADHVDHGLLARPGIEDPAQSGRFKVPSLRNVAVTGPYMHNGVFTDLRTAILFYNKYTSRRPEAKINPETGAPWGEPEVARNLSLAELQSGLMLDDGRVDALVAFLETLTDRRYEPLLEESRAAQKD
Nature of the test: stopped-flow single-turnover kinetics.

B1: amicyanin from Paracoccus denitrificans, wild type, reduced Cu(I) form (natural protein, UniProt P22364 27-131, looked up)
chain: DKATIPSESPFAAAEVADGAIVVDIAKMKYETPELHVKVGDTVTWINREAMPHNVHFVAGVLGEAALKGPMMKKEQAYSLTFTEAGTYDYHCTPHPFMRGKVVVE
The molecule B1 gave a Kd of 165 ± 50 µM.

B2: P94A amicyanin, reduced Cu(I) form (natural protein, Paracoccus denitrificans, UniProt P22364 27-131, looked up)
chain: DKATIPSESPFAAAEVADGAIVVDIAKMKYETPELHVKVGDTVTWINREAMPHNVHFVAGVLGEAALKGPMMKKEQAYSLTFTEAGTYDYHCTAHPFMRGKVVVE
As for B2, the Kd stood at 240 ± 82 µM.
